Results on five molecules are retold here after paper PMC12442346, “Novel regulatory mechanism of choline-O-sulfate and choline catabolism by two BetIs in Alphaproteobacteria” (Applied and Environmental Microbiology, 2025).

What is called Kd is the concentration at which binding is half-saturated.

The target of one data set is T1, BetI2 (Ruegeria pomeroyi, UniProt Q5LUG8).
T1 construct: gene betI; full length gene in pET28a(+), C-terminal His-tag, expressed in E. coli BL21(DE3), Ni-NTA and gel filtration; RED-Tris-NTA labelled for MST
T1 sequence (Q5LUG8 1-193): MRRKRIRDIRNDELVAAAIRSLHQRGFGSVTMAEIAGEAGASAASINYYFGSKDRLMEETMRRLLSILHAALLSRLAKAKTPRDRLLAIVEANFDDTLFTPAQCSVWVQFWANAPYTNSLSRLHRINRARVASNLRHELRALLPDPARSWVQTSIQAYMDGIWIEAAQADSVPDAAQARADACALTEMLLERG
Put plainly: microscale thermophoresis of BetI2 binding to DNA probes with or without choline. The conditions noted are these: effector; DNA probes P1 (betI2 box 1) and P2 (betI2 box 2); 1x PBS pH 7.4, 0.05% Tween-20, 25 C; labelled protein.

Data set [1] concerns T2, BetI2 (Ruegeria pomeroyi DSS-3), ORF:6e67dd5c.
T2 sequence: T1 sequence (Q5LUG8 1-193)
The experiment in a line: EMSA. Conditions: EMSA: 2 mM EDTA, 20 mM KCl, 0.5 mM DTT, 4% Ficoll-400, pH 8.0, 2 ug poly(dI-dC), 20 uL, protein 0-28 uM; MST: 1x PBS pH 7.4, 0.05% Tween-20, 25 C. (In general: Mobility shift assays separate free from complexed probe on a gel.)

For data set [2], the system named is BetI2 (Ruegeria pomeroyi DSS-3). The experiment in a line: MST. Conditions: EMSA: 2 mM EDTA, 20 mM KCl, 0.5 mM DTT, 4% Ficoll-400, pH 8.0, 2 ug poly(dI-dC), 20 uL, protein 0-28 uM, MST: 1x PBS pH 7.4, 0.05% Tween-20, 25 C.

Take `C[N+](C)(C)CCO` [choline]: the “microscale thermophoresis of BetI2 binding to DNA probes with or without choline” value at BetI2 is recorded as “The affinities of BetI2 to the IGR probe variants with or without choline were determined”.

In the case of “GGCCATATTGGCCAATCGGCCAAAGGGTTCAAGTTTAAAGGATTATCGAAAAACTTGAACGACTGTTCAAGTTTTGGTTCTTTTGATCAGGTTATTGTGCTAATTTCCCGCATCATTCGACCCGGCCCGGAGGAGAGGGCGGGCGTGAACCCAGGGAGGGACCATGAT (double strand) [IGR (EMSA probe)]”, the binding entry in data set [1] is “binds”.

On to IGR (MST probe), for which, in data set [2] (no choline stated), the Kd was 0.87 µM.

With P1 (IGR variant, betI2 box 1 only), the binding signal (fold affinity of P1 over P2) in data set [2] (choline) was 2. The binding signal (fold Kd of P1 over P2) in data set [2] (no choline) turned out to be 4.

Take P2 (IGR variant, betI2 box 2 only): in data set [2], the binding signal (affinity relative to P1 with choline) was 0.5. Moreover, the binding signal in data set [2] (no choline, scale: reference for P1 without choline) stood at 1.
